The assay deals with 15F12. As to the kind of experiment: SPR.

In general, Kd refers to a measure of binding affinity in units of concentration. Low values mean higher affinity, high ones lower affinity.

B1: pHP2 (other)
chain: VDSGNDVTDIADDGCPKPPEIAHGYVEHSVRYQCKNYYKLRTEGDGVYTLNDKKQWINKAVGDKLPECEADDGCPKPPEIAHGYVEHSVRYQCKNYYKLRTEGDGVYTLNNEKQWINKAVGDKLPECEAVCGKPKNPANPVQRILGGHLDAKGSFPWQAKMVSHHNLTTGATLINEQWLLTTAKNLFLNHSENATAKDIAPTLTLYVGKKQLVEIEKVVLHPNYSQVDIGLIKLKQKVSVNERVMPICLPSKDYAEVGRVGYVSGWGRNANFKFTDHLKYVMLPVADQDQCIRHYEGSTVPEKKTPKSPVGVQPILNEHTFCAGMSKYQEDTCYGDAGSAFAVHDLEEDTWYATGILSFDKSCAVAEYGVYVKVTSIQDWVQKTIAENHHHHHH
Molecule B1 came in with a Kd of 0.3 nM.

B2: pHP1 (other)
chain: VDSGNDVTDIADDGCPKPPEIAHGYVEHSVRYQCKNYYKLRTEGDGVYTLNNEKQWINKAVGDKLPECEAVCGKPKNPANPVQRILGGHLDAKGSFPWQAKMVSHHNLTTGATLINEQWLLTTAKNLFLNHSENATAKDIAPTLTLYVGKKQLVEIEKVVLHPNYSQVDIGLIKLKQKVSVNERVMPICLPSKDYAEVGRVGYVSGWGRNANFKFTDHLKYVMLPVADQDQCIRHYEGSTVPEKKTPKSPVGVQPILNEHTFCAGMSKYQEDTCYGDAGSAFAVHDLEEDTWYATGILSFDKSCAVAEYGVYVKVTSIQDWVQKTIAEN
The molecule B2 showed a Kd of 0.3 nM.

For the origin of these results see patent US20160266124A1 (published 2016).
